{"source": "patent US12134788B2", "about": "“Engineered prephenate dehydrogenases and arogenate dehydrogenases and methods of using the same” (Wisconsin Alumni Research Foundation, priority 2017, dated 2024)", "origin": "cited, not measured here", "settings": "arogenate versus prephenate, from references 29, 34; cited from earlier work"}
{"molecule": "AaPDH: prephenate dehydrogenase from Aquifex aeolicus, PDB 3GGG (protein, A. aeolicus; misc_feature (1)..(281): A.aeolicus AaPDH, prephenate dehydrogenase from Aquifex aeolicus, PDB 3GGG) MQNVLIVGVGFMGGSFAKSLRRSGFKGKIYGYDINPESISKAVDLGIIDEGTTSIAKVEDFSPDFVMLSSPVRTFREIAKKLSYILSEDATVTDQGSVKGKLVYDLENILGKRFVGGHPIAGTEKSGVEYSLDNLYEGKKVILTPTKKTDKKRLKLVKRVWEDVGGVVEYMSPELHDYVFGVVSHLPHAVAFALVDTLIHMSTPEVDLFKYPGGGFKDFTRIAKSDPIMWRDIFLENKENVMKAIEGFEKSLNHLKELIVREAEEELVEYLKEVKIKRMEI", "values": [{"measurement": "substrate specificity (in words)", "result": "prefers prephenate"}]}
